In article PMC3394733, “Involvement of the Penta-EF-Hand Protein Pef1p in the Ca^2+-Dependent Regulation of COPII Subunit Assembly in Saccharomyces cerevisiae” (PLoS ONE, 2012):
Residue numbers refer to the chain shown, from its start.

B1: MBP-Sec31(879–1114) (domain or fragment, S. cerevisiae, UniProt P38968 879-1114, looked up)
chain: APIQPGMPIMGDYNAQSSSIPSQPPINAVSGQTPHLNRKANDGWNDLPLKVKEKPSRAKAVSVAPPNILSTPTPLNGIPANAASTMPPPPLSRAPSSVSMVSPPPLHKNSRVPSLVATSESPRASISNPYAPPQSSQQFPIGTISTANQTSNTAQVASSNPYAPPPQQRVATPLSGGVPPAPLPKASNPYAPTATTQPNGSSYPPTGPYTNNHTMTSPPPVFNKPPTGPPPISMKK
notes: also called proline-rich region of Sec31p; pMY12; source: E. coli C41(DE3), purified (amylose resin, eluted with 30 mM maltose)
B2: GST-Pef1p (natural protein, S. cerevisiae, UniProt P53238 1-335, looked up)
chain: MCAKKLKYAAGDDFVRYATPKEAMEETRREFEKEKQRQQQIKVTQAQTPNTRVHSAPIPLQTQYNKNRAENGHHSYGSPQSYSPRHTKTPVDPRYNVIAQKPAGRPIPPAPTHYNNLNTSAQRIASSPPPLIHNQAVPAQLLKKVAPASFDSREDVRDMQVATQLFHNHDVKGKNRLTAEELQNLLQNDDNSHFCISSVDALINLFGASRFGTVNQAEFIALYKRVKSWRKVYVDNDINGSLTISVSEFHNSLQELGYLIPFEVSEKTFDQYAEFINRNGTGKELKFDKFVEALVWLMRLTKLFRKFDTNQEGIATIQYKDFIDATLYLGRFLPH
notes: No removal of GST is described; also called N-terminally GST-fused Pef1p; pMY3; source: E. coli JM109, purified (glutathione-Sepharose, eluted with 10 mM glutathione); not shown: GST, N-terminal, kept
B3: GST-Pef1p-E180/181/248A (natural protein, S. cerevisiae, UniProt P53238 1-335, looked up)
chain: B2 chain with E180A, E181A, E248A
notes: also called pMY14; source: E. coli JM109, purified (glutathione-Sepharose, eluted with 10 mM glutathione); not shown: GST, N-terminal, kept
B4: Sec13/31p complex (complex, S. cerevisiae)
chain 1: MVVIANAHNELIHDAVLDYYGKRLATCSSDKTIKIFEVEGETHKLIDTLTGHEGPVWRVDWAHPKFGTILASCSYDGKVLIWKEENGRWSQIAVHAVHSASVNSVQWAPHEYGPLLLVASSDGKVSVVEFKENGTTSPIIIDAHAIGVNSASWAPATIEEDGEHNGTKESRKFVTGGADNLVKIWKYNSDAQTYVLESTLEGHSDWVRDVAWSPTVLLRSYLASVSQDRTCIIWTQDNEQGPWKKTLLKEEKFPDVLWRASWSLSGNVLALSGGDNKVTLWKENLEGKWEPAGEVHQ
chain 2: MVKLAEFSRTATFAWSHDKIPLLVSGTVSGTVDANFSTDSSLELWSLLAADSEKPIASLQVDSKFNDLDWSHNNKIIAGALDNGSLELYSTNEANNAINSMARFSNHSSSVKTVKFNAKQDNVLASGGNNGEIFIWDMNKCTESPSNYTPLTPGQSMSSVDEVISLAWNQSLAHVFASAGSSNFASIWDLKAKKEVIHLSYTSPNSGIKQQLSVVEWHPKNSTRVATATGSDNDPSILIWDLRNANTPLQTLNQGHQKGILSLDWCHQDEHLLLSSGRDNTVLLWNPESAEQLSQFPARGNWCFKTKFAPEAPDLFACASFDNKIEVQTLQNLTNTLDEQETETKQQESETDFWNNVSREESKEKPTVFHLQAPTWYGEPSPAAHWAFGGKLVQITPDGKGVSITNPKISGLESNTTLSEALKTKDFKPLINQRLVKVIDDVNEEDWNLLEKLSMDGTEEFLKEALAFDNDESDAQDDANNEKEDDGEEFFQQIETNFQPEGDFSLSGNIEQTISKNLVSGNIKSAVKNSLENDLLMEAMVIALDSNNERLKESVKNAYFAKYGSKSSLSRILYSISKREVDDLVENLDVSQWKFISKAIQNLYPNDIAQRNEMLIKLGDRLKENGHRQDSLTLYLAAGSLDKVASIWLSEFPDLEDKLKKDNKTIYEAHSECLTEFIERFTVFSNFINGSSTINNEQLIAKFLEFINLTTSTGNFELATEFLNSLPSDNEEVKTEKARVLIASGKSLPAQNPATATTSKAKYTNAKTNKNVPVLPTPGMPSTTSIPSMQAPFYGMTPGASANALPPKPYVPATTTSAPVHTEGKYAPPSQPSMASPFVNKTNSSTRLNSFAPPPNPYATATVPATNVSTTSIPQNTFAPIQPGMPIMGDYNAQSSSIPSQPPINAVSGQTPHLNRKANDGWNDLPLKVKEKPSRAKAVSVAPPNILSTPTPLNGIPANAASTMPPPPLSRAPSSVSMVSPPPLHKNSRVPSLVATSESPRASISNPYAPPQSSQQFPIGTISTANQTSNTAQVASSNPYAPPPQQRVATPLSGGVPPAPLPKASNPYAPTATTQPNGSSYPPTGPYTNNHTMTSPPPVFNKPPTGPPPISMKKRSNKLASIEQNPSQGATYPPTLSSSASPLQPSQPPTLASQVNTSAENVSHEIPADQQPIVDFLKEELARVTPLTPKEYSKQLKDCDKRLKILFYHLEKQDLLTQPTIDCLHDLVALMKEKKYKEAMVIHANIATNHAQEGGNWLTGVKRLIGIAEATLN
notes: Sec13p, COPII outer coat subunit, S. cerevisiae; Sec31p, COPII outer coat subunit, S. cerevisiae; also called outer COPII coat; source: purified

What was measured:
Conditions in all cases: both partners purified
[1] = target: B2; assay: pull-down; GST-Pef1p or GST (40 nM) and MBP-Sec31p fragment (80 nM), glutathione-Sepharose beads, 4°C 2 h, 20 mM HEPES-KOH pH 8.0, 160 mM potassium acetate, 0.1% Triton X-100; CaCl2 or EGTA not told for this experiment; immunoblot with anti-MBP
[2] = target: B4; assay: pull-down; GST fusion or GST (40 nM) and Sec13/31p (80 nM) with 5 mM EGTA, glutathione-Sepharose beads, 4°C 2 h, 20 mM HEPES-KOH pH 8.0, 160 mM potassium acetate, 0.1% Triton X-100; immunoblot with anti-Sec31p
[3] = target: T1, Sec23/24p complex (S. cerevisiae, UniProt P15303 1-768; P40482 1-926); assay: light scattering of liposomes; liposomes (100 µg/mL) preloaded with Sar1p (950 nM) and GMP-PNP (0.1 mM); Sec23/24p (160 nM), then Sec13/31p (260 nM) added; 350 nm, 25°C, 20 mM HEPES-KOH pH 6.8, 160 mM potassium acetate, 1 mM MgCl2; 5 mM EGTA in panel A, none in panel B; with or without GST-Pef1p or its mutant (520 nM)
T1 construct: Sec23p, COPII inner coat subunit, GAP for Sar1p, S. cerevisiae; Sec24p, COPII inner coat subunit, S. cerevisiae; also called inner COPII coat
T1 sequence (P15303 whole entry, chain 1 of 2): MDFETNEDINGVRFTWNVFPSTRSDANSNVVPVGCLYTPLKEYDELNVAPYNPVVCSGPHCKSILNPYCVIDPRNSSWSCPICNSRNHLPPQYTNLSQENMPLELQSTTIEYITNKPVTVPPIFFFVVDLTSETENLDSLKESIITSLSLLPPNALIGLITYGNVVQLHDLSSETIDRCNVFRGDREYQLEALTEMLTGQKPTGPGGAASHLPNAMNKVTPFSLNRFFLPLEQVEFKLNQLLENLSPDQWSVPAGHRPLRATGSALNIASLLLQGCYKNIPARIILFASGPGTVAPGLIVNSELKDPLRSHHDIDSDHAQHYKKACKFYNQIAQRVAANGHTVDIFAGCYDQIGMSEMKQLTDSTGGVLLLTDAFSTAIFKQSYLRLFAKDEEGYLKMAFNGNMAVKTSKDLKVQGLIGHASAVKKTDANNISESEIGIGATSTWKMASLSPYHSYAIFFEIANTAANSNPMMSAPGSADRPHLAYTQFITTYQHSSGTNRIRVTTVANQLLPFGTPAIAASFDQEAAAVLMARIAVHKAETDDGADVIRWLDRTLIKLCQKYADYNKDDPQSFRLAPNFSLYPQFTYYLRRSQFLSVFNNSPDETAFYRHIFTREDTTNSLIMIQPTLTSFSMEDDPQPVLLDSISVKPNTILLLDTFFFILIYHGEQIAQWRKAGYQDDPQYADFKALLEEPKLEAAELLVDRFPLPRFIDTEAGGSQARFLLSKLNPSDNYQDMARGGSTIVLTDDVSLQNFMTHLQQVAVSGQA
T1 sequence (P40482 whole entry, chain 2 of 2): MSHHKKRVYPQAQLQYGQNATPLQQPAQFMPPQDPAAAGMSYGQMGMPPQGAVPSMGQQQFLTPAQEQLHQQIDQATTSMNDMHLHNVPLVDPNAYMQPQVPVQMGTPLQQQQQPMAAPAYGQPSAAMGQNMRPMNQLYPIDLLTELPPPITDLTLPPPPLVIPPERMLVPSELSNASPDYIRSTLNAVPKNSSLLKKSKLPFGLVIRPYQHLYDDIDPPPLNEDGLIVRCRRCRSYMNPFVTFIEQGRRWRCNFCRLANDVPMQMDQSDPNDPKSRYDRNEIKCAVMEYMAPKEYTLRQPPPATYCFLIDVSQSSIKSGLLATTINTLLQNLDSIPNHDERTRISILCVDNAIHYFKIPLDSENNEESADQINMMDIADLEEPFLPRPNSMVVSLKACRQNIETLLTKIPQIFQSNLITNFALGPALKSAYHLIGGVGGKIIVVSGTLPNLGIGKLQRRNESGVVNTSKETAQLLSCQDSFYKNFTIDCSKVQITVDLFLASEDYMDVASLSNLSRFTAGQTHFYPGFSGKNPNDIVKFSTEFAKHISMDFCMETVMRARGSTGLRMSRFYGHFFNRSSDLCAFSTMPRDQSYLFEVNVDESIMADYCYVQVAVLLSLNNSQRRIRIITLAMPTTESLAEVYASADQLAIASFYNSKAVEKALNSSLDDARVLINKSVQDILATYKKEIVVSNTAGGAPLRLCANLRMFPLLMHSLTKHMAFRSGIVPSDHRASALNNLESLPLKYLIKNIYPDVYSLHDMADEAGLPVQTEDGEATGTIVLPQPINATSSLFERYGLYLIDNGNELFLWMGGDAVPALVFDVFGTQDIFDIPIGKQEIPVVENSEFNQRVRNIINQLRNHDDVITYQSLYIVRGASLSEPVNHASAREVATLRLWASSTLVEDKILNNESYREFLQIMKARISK

Row | Binder | binding result [2] | also measured
1 | B1 | – | binding result [1]: binds
2 | B2 | binds | –
3 | B3 | binds | –
4 | B4 | – | binding result [3]: binds
